From publication PMC9756944

System: HupA (HU homologue) (Streptomyces coelicolor)
Experiment: EMSA (agarose)
Settings: Buffer B: 50 mM NaH2PO4 pH 8.1, 300 mM NaCl, 10% glycerol, 0-40 uM HupA, 120 ng (3.6 nM) pUC19, 3 min room temperature then 15 min 37 C, 1% agarose in TAE …

## pUC19 negatively supercoiled
Bound at 15 uM HupA, 3.6 nM plasmid, 300 mM NaCl
  binding: 15 µM

## pUC19 relaxed by E. coli topoisomerase I
Relaxed by E. coli topoisomerase I (NEB), enzyme inactivated at 65 C
  binding: 40 µM
